In this data set the target is SARS-CoV-2 spike receptor-binding domain (RBD) (SARS-CoV-2 (Wuhan strain), UniProt P0DTC2 P0DTC2:319-541). The data set can be described thus: ELONA. The settings on record: tags: N-terminal His tag, pET-15b, E. coli BL21 Star (DE3), about 26 kDa.

Twelve molecules from US20260235601, “APTAMER BASED DETECTION OF SARS-COV-2 INFECTION” (COUNCIL OF SCIENTIFIC & INDUSTRIAL RESEARCH, published 2026) can be followed below.

B1: AptRBD3 (ssDNA)
DNA: ATGCGGATCCCGCGCATTTAAAGCGGTTCGATGCGTATGGGTTTGTCCGATTCGGTGCGCGAAGCTTGCGC
B1 yielded a binding signal of 0.75 absorbance.

B2: AptRBD6 (ssDNA)
DNA: ATGCGGATCCCGCGCATTTAAAGCGCTTCGATGCGTATGGGTTTGTCCGATTAGCTGCGCGAAGCTTGCGC
With B2, the binding signal was found to be 0.7 absorbance.
Consider ATTTAAAGCGGTTCGATGCGTATGGTTTGTCCGAT (ssDNA) [AptRBD3.2], for which the activity is 4 ng/mL.

B3: AptRBD5 (ssDNA)
DNA: ATGCGGATCCCGCGCATTTAAAGGGAGACCTATGGGTTTGTCCGATTAGCTGCGCGAAGCTTGCGC
Consider B3, for which the binding result is “binds”.

B4: AptRBD8 (ssDNA)
DNA: ATGCGGATCCCGCGCATTTAAAGGGGGCGCTCCGTATGGGTTTGTCCGATTAGCTGCGCGAAGCTTGCGC
Molecule B4 showed a binding signal of 0.75 absorbance.

B5: AptRBD9 (ssDNA)
DNA: ATGCGGATCCCGCGCCCGACGTCGCATGCTCCCGGCCGCCATGGCGGCCGCGGGAATTCGATTAGCGCGAAGCTTGCGC
For the molecule B5, the binding result is “binds”.
ATTTAAAGCGCTTCGATGCGTATGGGTTTGTCCGAT (ssDNA) [AptRBD6.1] yielded an activity of 4 ng/mL.
In turn, AGCGGTTCGATGCGTATGGTTTGTCCGAT (ssDNA) [AptRBD3.3] displayed an activity of 4 ng/mL.

B6: AptRBD2 (ssDNA)
DNA: ATGCGGATCCCGCGCATATTAAAGGGGAGGCTCCCTATGGGTTTGTCCGATTAGCTGCGCGAAGCTTGCGC
As for B6, the binding result was “binds”.
Turning to ATTTAAAGCGGTTCGATGCGTATGGTTTGTCCGATTCGGT (ssDNA) [AptRBD3.1], the activity is 4 ng/mL.

B7: AptRBD4 (ssDNA)
DNA: ATGCGGATCCCGCGCATTTAAAGCGTCGATGCGTATGGGTTTGTCCGATTAGCTGCGCGAAGCTTGCGC
As for B7, the binding result was “binds”.
As for ATTTAAAGGGGGCGCTCCGTATGGGTTTGTCCGATTAGCT (ssDNA) [AptRBD8.1], the activity turned out to be 8 ng/mL.
